# Changes are numbered by the printed parent chain.
# B1: Chi mAb (Tyr) (antibody, human IgG4 S228P, kappa, V domains shown)
# VH: QVQLQQSGSELVRPGASVKLSCKASGYTFTTYWMHWVRQRPGQGLEWIGNIYPGTGGSNFDEKFKNRTSLTVDTSSTTAYMHLASLTSEDSAVYYCTRWTTGTGAYWGQGTTVTVSS
# VL: DIVMTQSPSSLTVTAGEKVTMSCKSSQSLLDSGNQKNFLTWYQQKPGQPPKLLIFWASTRESGVPDRFTGSGSVTDFTLTISSVQAEDLAVYYCQNDYSYPYTFGQGTKVEIKR
# notes: also called BAP049-chi-Y; Chi (Tyr)
# B2: Mu mAb (antibody, V domains shown)
# VH: B1 VH with T112L, S117A
# VL: DIVMTQSPSSLTVTAGEKVTMSCKSSQSLLDSGNQKNFLTWYQQKPGQPPKLLIFWASTRESGVPDRFTGSGSVTDFTLTISSVQAEDLAVYYCQNDYSYPCTFGGGTKLEIK
# notes: also called murine mAb BAP049; murine anti-PD-1 mAb BAP049
# B3: BAP049-hum10 (antibody, human IgG4 S228P, kappa)
# heavy: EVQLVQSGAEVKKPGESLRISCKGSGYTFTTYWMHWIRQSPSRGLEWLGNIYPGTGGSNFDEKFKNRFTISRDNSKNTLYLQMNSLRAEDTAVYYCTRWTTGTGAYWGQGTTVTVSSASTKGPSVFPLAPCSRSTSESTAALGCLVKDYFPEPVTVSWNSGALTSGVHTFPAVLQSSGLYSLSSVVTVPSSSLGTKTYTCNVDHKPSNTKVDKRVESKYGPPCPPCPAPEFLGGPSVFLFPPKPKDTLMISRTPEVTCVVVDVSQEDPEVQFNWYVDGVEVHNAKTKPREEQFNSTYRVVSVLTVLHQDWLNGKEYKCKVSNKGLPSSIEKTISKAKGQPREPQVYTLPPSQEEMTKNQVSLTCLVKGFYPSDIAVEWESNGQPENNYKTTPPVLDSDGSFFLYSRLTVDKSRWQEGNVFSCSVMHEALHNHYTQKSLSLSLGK
# light: EIVLTQSPATLSLSPGERATLSCKSSQSLLDSGNQKNFLTWYQQKPGQAPRLLIYWASTRESGVPSRFSGSGSGTDFTFTISSLEAEDAATYYCQNDYSYPYTFGQGTKVEIKRTVAAPSVFIFPPSDEQLKSGTASVVCLLNNFYPREAKVQWKVDNALQSGNSQESVTEQDSKDSTYSLSSTLTLSKADYEKHKVYACEVTHQGLSSPVTKSFNRGEC
# notes: also called humanized BAP049 clone hum10
# B4: BAP049-hum01 (antibody, human IgG4 S228P, kappa, V domains shown)
# VH: EVQLVQSGAEVKKPGESLRISCKGSGYTFTTYWMHWVRQATGQGLEWMGNIYPGTGGSNFDEKFKNRVTITADKSTSTAYMELSSLRSEDTAVYYCTRWTTGTGAYWGQGTTVTVSS
# VL: EIVLTQSPATLSLSPGERATLSCKSSQSLLDSGNQKNFLTWYQQKPGQAPRLLIYWASTRESGVPSRFSGSGSGTEFTLTISSLQPDDFATYYCQNDYSYPYTFGQGTKVEIKR
# notes: Humanized anti-PD-1 mAb; also called humanized BAP049 clone hum01
# B5: BAP049-hum05 (antibody, human IgG4 S228P, kappa, V domains shown)
# VH: B4 VH
# VL: B4 VL with Q48K, R51K, E76D, L79F, D87E, F89I
# notes: also called humanized BAP049 clone hum05
# B6: BAP049-hum02 (antibody, human IgG4 S228P, kappa, V domains shown)
# VH: B4 VH
# VL: DIQMTQSPSSLSASVGDRVTITCKSSQSLLDSGNQKNFLTWYQQKPGQAPRLLIYWASTRESGIPPRFSGSGYGTDFTLTINNIESEDAAYYFCQNDYSYPYTFGQGTKVEIKR
# notes: also called clone 2
# B7: BAP049-hum12 (antibody, human IgG4 S228P, kappa, V domains shown)
# VH: B4 VH
# VL: DIQMTQSPSSLSASVGDRVTITCKSSQSLLDSGNQKNFLTWYLQKPGQSPQLLIYWASTRESGVPSRFSGSGSGTDFTFTISSLEAEDAATYYCQNDYSYPYTFGQGTKVEIKR
# notes: also called clone 12
# B8: BAP049-hum03 (antibody, human IgG4 S228P, kappa, V domains shown)
# VH: EVQLVQSGAEVKKPGESLRISCKGSGYTFTTYWMHWIRQSPSRGLEWLGNIYPGTGGSNFDEKFKNRFTISRDNSKNTLYLQMNSLRAEDTAVYYCTRWTTGTGAYWGQGTTVTVSS
# VL: B6 VL
# notes: also called clone 3
# B9: BAP049-hum13 (antibody, human IgG4 S228P, kappa)
# heavy chain: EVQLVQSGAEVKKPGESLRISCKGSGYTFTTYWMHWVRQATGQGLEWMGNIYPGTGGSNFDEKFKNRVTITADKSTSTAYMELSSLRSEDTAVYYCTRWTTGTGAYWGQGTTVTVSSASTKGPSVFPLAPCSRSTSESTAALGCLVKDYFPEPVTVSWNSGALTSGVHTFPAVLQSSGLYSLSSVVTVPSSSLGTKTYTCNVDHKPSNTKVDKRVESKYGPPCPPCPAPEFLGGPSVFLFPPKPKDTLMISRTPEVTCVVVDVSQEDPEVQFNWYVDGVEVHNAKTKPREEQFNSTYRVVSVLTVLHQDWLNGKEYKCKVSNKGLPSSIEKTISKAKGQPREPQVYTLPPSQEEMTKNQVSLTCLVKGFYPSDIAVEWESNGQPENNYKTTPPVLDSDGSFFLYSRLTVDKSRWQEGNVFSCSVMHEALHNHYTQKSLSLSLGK
# light chain: DVVMTQSPLSLPVTLGQPASISCKSSQSLLDSGNQKNFLTWYQQKPGKAPKLLIYWASTRESGVPSRFSGSGSGTDFTFTISSLEAEDAATYYCQNDYSYPYTFGQGTKVEIKRTVAAPSVFIFPPSDEQLKSGTASVVCLLNNFYPREAKVQWKVDNALQSGNSQESVTEQDSKDSTYSLSSTLTLSKADYEKHKVYACEVTHQGLSSPVTKSFNRGEC
# notes: also called clone 13
# B10: BAP049-hum16 (antibody, human IgG4 S228P, kappa, V domains shown)
# VH: B8 VH with I37V, S40A, S42G, R43Q, L48M
# VL: EIVLTQSPDFQSVTPKEKVTITCKSSQSLLDSGNQKNFLTWYQQKPGQAPRLLIYWASTRESGVPSRFSGSGSGTDFTFTISSLEAEDAATYYCQNDYSYPYTFGQGTKVEIKR
# notes: also called clone 16
# B11: BAP049-hum15 (antibody, human IgG4 S228P, kappa)
# heavy chain: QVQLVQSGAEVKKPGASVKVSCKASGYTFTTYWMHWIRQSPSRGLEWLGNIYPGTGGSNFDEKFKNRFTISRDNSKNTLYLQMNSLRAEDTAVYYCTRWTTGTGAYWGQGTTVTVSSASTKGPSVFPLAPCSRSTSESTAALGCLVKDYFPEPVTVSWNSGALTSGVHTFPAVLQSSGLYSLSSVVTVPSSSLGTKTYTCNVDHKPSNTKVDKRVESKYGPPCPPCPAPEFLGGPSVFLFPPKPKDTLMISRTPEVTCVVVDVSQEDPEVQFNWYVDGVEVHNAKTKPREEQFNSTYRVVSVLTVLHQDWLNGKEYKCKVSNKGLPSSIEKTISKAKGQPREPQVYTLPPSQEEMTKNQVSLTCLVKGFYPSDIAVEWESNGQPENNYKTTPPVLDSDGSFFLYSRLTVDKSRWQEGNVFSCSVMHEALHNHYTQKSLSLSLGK
# light chain: B3 light with A9D, T10F, L11Q, L13V, S14T, G16K, R18K, A19V, L21I, S22T
# notes: also called clone 15
# B12: BAP049-hum11 (antibody, human IgG4 S228P, kappa)
# heavy: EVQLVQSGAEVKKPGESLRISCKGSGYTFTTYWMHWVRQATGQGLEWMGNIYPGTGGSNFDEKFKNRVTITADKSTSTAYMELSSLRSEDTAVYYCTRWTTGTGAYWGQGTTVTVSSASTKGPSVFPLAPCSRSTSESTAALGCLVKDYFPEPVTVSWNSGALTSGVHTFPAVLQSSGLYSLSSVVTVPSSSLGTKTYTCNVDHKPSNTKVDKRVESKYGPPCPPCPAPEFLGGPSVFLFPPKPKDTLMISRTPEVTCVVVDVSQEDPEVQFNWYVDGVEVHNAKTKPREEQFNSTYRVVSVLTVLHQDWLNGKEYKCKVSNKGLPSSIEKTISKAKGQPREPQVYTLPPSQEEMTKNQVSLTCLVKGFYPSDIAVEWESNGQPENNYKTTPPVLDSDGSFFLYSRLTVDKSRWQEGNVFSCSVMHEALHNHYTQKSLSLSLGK
# light: B3 light
# notes: also called humanized BAP049 clone hum11
# B13: BAP049-hum06 (antibody, human IgG4 S228P, kappa)
# heavy chain: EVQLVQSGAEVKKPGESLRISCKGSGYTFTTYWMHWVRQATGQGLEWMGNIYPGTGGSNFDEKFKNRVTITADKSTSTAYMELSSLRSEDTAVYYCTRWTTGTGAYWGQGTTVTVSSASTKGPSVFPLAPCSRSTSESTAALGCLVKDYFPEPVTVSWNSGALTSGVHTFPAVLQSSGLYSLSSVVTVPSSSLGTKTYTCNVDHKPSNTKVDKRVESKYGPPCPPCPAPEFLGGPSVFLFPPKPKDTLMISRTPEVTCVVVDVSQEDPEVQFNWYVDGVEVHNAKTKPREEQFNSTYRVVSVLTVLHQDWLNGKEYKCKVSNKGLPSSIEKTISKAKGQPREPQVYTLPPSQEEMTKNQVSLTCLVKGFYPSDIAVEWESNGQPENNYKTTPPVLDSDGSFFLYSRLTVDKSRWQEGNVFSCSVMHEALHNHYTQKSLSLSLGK
# light chain: B9 light chain with V2I, S7T, L15P, Q17E, K48Q, K51R
# notes: also called clone 6
# B14: BAP049-hum04 (antibody, human IgG4 S228P, kappa, V domains shown)
# VH: B8 VH
# VL: B4 VL with Q48K, R51K, E76D, L79F, D87E, F89I
# notes: also called clone 4
# B15: BAP049-hum07 (antibody, human IgG4 S228P, kappa)
# heavy chain: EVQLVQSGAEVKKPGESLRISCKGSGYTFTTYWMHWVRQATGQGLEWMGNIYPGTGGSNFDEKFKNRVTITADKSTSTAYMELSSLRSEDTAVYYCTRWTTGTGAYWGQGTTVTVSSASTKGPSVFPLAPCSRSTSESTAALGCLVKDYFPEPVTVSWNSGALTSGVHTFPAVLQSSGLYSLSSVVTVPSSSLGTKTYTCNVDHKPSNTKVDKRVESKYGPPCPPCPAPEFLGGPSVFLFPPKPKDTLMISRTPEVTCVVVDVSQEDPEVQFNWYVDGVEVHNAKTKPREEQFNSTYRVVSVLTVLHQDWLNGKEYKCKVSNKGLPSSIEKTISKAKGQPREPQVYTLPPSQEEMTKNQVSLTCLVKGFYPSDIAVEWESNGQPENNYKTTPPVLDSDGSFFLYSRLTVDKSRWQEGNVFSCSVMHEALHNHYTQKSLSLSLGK
# light chain: B3 light with Q48K, R51K
# notes: also called clone 7
# B16: BAP049-hum08 (antibody, human IgG4 S228P, kappa)
# heavy: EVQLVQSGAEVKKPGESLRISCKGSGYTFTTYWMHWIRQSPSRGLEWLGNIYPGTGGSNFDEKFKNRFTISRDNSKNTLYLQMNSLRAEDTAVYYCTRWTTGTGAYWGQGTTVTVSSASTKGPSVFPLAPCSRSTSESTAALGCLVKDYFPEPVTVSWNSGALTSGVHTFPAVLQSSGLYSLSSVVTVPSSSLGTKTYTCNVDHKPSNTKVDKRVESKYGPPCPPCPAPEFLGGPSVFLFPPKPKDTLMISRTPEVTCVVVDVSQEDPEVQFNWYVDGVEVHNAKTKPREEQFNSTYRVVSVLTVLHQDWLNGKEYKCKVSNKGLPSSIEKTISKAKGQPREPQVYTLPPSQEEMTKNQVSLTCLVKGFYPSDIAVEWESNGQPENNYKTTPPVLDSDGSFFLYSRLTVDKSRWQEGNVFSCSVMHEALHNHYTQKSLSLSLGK
# light: B3 light with A9D, T10F, L11Q, L13V, S14T, G16K, R18K, A19V, L21I, S22T
# notes: also called humanized BAP049 clone hum08
# B17: BAP049-hum14 (antibody, human IgG4 S228P, kappa)
# heavy chain: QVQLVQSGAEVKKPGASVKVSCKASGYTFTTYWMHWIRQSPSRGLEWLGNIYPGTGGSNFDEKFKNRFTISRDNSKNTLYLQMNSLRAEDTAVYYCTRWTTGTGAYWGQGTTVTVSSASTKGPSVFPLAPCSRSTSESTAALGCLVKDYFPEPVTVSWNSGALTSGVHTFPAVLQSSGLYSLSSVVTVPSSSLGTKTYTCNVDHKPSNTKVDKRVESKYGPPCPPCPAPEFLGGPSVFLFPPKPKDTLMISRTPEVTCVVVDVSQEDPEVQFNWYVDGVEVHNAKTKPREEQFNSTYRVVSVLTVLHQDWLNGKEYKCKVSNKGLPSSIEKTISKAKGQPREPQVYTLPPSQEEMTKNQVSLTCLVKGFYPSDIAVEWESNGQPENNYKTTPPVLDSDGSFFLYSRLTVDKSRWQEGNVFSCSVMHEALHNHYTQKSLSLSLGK
# light chain: B3 light
# notes: also called clone 14
# B18: BAP049-hum09 (antibody, human IgG4 S228P, kappa)
# heavy: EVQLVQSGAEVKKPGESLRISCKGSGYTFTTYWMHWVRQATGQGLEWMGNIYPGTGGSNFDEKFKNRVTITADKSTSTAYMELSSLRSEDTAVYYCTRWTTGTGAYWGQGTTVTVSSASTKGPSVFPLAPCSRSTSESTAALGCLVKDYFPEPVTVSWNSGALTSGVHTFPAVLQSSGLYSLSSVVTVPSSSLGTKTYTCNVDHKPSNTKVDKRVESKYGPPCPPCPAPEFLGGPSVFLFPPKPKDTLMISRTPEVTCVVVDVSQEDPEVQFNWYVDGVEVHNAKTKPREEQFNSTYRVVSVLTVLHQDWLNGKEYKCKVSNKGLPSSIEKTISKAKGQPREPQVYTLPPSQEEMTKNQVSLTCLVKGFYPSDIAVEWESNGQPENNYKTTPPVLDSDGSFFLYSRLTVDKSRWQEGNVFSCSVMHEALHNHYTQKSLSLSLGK
# light: B3 light with A9D, T10F, L11Q, L13V, S14T, G16K, R18K, A19V, L21I, S22T
# notes: also called humanized BAP049 clone hum09
# Target: T1, Programmed Death 1 (PD-1) (UniProt Q15116 25-288, limits assumed)
# Assay: FACS, blocking of ligand-Ig binding to PD-1, MFI of bound ligand against mAb concentration; legend paragraph 53 names 'PD-LI-Ig and PD-L2-Ig' for FIG. 8A; cells not named
# T1 sequence (Q15116 25-288 limits assumed): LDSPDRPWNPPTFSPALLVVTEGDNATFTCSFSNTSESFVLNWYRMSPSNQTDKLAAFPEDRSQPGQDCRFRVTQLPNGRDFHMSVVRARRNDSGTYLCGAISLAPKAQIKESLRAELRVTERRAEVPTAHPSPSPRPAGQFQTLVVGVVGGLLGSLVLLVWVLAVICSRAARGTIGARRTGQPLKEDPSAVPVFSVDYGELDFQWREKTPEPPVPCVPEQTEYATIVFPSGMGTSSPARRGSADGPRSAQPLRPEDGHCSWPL
row,Binder,IC50 (read off the curve)
1,B1,~0.9 µg/mL
2,B2,~0.7 µg/mL
3,B3,~1 µg/mL
4,B4,~1 µg/mL
5,B5,~1 µg/mL

# Target: T1, Programmed Death 1 (PD-1)
# Assay: rank of the clone by competition binding against labelled murine mAb BAP049, first experiment (legends paragraph 52)
row,Binder,"Competition Binding, 1st exp. (rank)"
1,B6,3
2,B7,8
3,B8,8
4,B9,1
5,B10,16
6,B3,6
7,B11,7
8,B12,4
9,B13,7
10,B14,15
11,B15,7
12,B4,7
13,B16,7
14,B17,7
15,B18,2
16,B5,5

# Target: T1, Programmed Death 1 (PD-1)
# Assay: rank of the clone among the humanized BAP049 clones by FACS data
row,Binder,"Ranking, FACS data"
1,B6,6
2,B7,3
3,B8,7
4,B9,6
5,B10,15
6,B3,7
7,B11,6
8,B12,6
9,B13,1
10,B14,14
11,B15,4
12,B4,2
13,B16,7
14,B17,16
15,B18,7
16,B5,5

# Target: T1, Programmed Death 1 (PD-1)
# Assay: rank of the clone by competition binding against labelled murine mAb BAP049, second experiment (legends paragraph 52); footnote: empty boxes means worse than 4
row,Binder,"Competition Binding, 2nd exp. (rank)"
1,B6,2
2,B7,16
3,B8,14
4,B9,1
5,B10,15
6,B3,> 4
7,B11,15
8,B12,> 4
9,B13,3
10,B14,15
11,B15,> 4
12,B4,2
13,B16,4
14,B17,15
15,B18,4
16,B5,> 4
